Results from PMC8445900.

What was measured:
Assay in all cases: ITC
[1] = target: SARS-CoV-2 spike protein receptor-binding domain K417N (SARS-CoV-2) (UniProt P0DTC2)
[2] = target: SARS-CoV-2 spike protein receptor-binding domain S477N (SARS-CoV-2) (UniProt P0DTC2)
[3] = target: SARS-CoV-2 spike protein receptor-binding domain S494P (SARS-CoV-2) (UniProt P0DTC2)
[4] = target: SARS-CoV-2 spike protein receptor-binding domain T478I (SARS-CoV-2) (UniProt P0DTC2)
[5] = target: SARS-CoV-2 spike protein receptor-binding domain Y453F (SARS-CoV-2) (UniProt P0DTC2)

“CC12.1 single-chain fragment variable (scFv)” was tested, and the Kd [1] was 119 nM, the dH [1] was -1.8 kcal/mol and the Kd [2] was 25.6 nM. It also gave a dH [2] of -5.7 kcal/mol, a Kd [3] of 23 nM and a dH [3] of -6.4 kcal/mol. It also gave a Kd [4] of 5.8 nM, a dH [4] of -5.6 kcal/mol and a Kd [5] of 827 nM. The dH [5] was -2.2 kcal/mol.
